According to patent publication US7078514 (dated 2006):
No end group written: not given here.

Molecular target: T1, recombinant chicken GHRH receptor (chicken)
T1 construct: Full-length cloned receptor; also called cGHRH receptor; cloned chicken GHRH receptor
T1 chain: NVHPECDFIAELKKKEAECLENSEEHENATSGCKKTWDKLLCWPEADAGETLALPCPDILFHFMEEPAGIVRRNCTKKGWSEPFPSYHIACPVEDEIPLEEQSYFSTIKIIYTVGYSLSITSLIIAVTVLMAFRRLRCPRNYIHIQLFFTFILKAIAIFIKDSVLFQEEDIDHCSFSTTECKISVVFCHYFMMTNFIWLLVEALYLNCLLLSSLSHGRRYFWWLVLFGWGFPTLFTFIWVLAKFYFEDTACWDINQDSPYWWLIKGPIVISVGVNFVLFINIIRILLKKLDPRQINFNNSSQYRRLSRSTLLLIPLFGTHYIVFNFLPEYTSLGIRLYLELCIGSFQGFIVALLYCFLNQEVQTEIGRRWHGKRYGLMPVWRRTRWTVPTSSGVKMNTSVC
Experiment: competition with labeled hGHRH at recombinant chicken GHRH receptor

binding result: no binding
B1: chicken GHRH polypeptide (asparagine^21), previously reported chicken GHRH (ligand)
peptide: HADGIFSKAYRKLLGQLSARNYLHSLMAKRVGGASSGLGDEAEPLS
modifications: not fully specified
notes: also called cGHRH(Asp^21); published polypeptide
